Assay in all cases: cell-based or functional assay
The target in assay [1] is human CRF2-4 (IL10Rb) (human).
Assay [2] concerns the target T1, human zcytor19 (Zyctor19) cytokine receptor (human).
T1 sequence (Q8IU57 1-520, looked up): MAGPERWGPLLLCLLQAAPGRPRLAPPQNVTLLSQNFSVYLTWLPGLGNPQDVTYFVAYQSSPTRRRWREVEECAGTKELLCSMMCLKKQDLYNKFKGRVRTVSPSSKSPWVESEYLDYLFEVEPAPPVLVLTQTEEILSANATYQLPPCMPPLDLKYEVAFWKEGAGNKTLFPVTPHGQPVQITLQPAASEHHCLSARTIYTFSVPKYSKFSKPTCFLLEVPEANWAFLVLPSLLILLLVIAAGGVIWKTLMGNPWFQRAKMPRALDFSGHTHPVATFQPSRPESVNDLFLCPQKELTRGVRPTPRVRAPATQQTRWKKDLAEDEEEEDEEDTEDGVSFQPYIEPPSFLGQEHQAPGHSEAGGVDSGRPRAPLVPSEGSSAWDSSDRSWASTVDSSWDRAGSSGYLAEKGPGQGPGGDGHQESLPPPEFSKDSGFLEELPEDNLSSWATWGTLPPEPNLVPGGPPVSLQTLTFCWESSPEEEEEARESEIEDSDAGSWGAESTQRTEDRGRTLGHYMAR

Assay [3] addresses zcytoR19 and IL10Rb (CRF2-4) co-expressed on cells (heterodimeric receptor) (human).

human CRF2-4 (IL10Rb) (human), sequence (Q08334 whole entry): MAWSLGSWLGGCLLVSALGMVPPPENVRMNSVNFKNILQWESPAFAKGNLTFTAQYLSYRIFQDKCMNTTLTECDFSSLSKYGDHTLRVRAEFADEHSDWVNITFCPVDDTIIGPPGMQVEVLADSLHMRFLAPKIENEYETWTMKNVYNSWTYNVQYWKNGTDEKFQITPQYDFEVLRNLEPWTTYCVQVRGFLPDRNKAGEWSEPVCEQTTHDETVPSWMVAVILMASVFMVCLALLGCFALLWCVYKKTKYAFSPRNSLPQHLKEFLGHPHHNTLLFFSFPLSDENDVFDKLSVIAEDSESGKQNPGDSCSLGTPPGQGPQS
zcyto21 (ligand), sequence (Q8IU54 20-200): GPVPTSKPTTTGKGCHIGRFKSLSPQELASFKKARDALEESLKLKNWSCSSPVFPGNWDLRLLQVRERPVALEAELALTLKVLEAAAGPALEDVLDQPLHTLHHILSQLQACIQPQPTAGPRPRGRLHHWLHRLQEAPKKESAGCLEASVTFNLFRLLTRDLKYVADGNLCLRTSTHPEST

With zcyto20-CEE (ligand), in assay [1], the Optical Density (570 nm) of EMCV-infected cells, HuzcytoR19-overexpressing 293 cells, Zcyto20-CEE 0.5 ng/ml, Anti-IL10Rb 5 µg/ml amounted to 0.95 OD 570 nm; the Optical Density (570 nm) of EMCV-infected cells, HuzcytoR19-overexpressing 293 cells, Zcyto20-CEE 0.5 ng/ml, Anti-LeptinR control antibody 5 µg/ml is 2.24 OD 570 nm; the Optical Density (570 nm) of EMCV-infected cells, wild-type 293 cells, Zcyto20-CEE 200 ng/ml, Anti-IL10Rb 5 µg/ml turned out to be 0.94 OD 570 nm; the Optical Density (570 nm) of EMCV-infected cells, wild-type 293 cells, Zcyto20-CEE 200 ng/ml, Anti-LeptinR control antibody 5 µg/ml is 1.88 OD 570 nm.
For the substance zcyto21 (ligand), in assay [1], the ISRE-luciferase fold induction, wild-type 293 cells, Zcyto21 0.001 ng/ml (fold induction) is 1.2; the ISRE-luciferase fold induction, wild-type 293 cells, Zcyto21 0.001 ng/ml + IL10Rb neutralizing Antibody (fold induction) worked out at 1.3; the ISRE-luciferase fold induction, wild-type 293 cells, Zcyto21 0.01 ng/ml (fold induction) was 1.2; the ISRE-luciferase fold induction, wild-type 293 cells, Zcyto21 0.01 ng/ml + IL10Rb neutralizing Antibody (fold induction) is 1.3. In assay [1], the ISRE-luciferase fold induction, wild-type 293 cells, Zcyto21 0.1 ng/ml (fold induction) was determined as 1.1; the ISRE-luciferase fold induction, wild-type 293 cells, Zcyto21 0.1 ng/ml + IL10Rb neutralizing Antibody (fold induction) was 1.3; the ISRE-luciferase fold induction, wild-type 293 cells, Zcyto21 1 ng/ml (fold induction) is 1.5; the ISRE-luciferase fold induction, wild-type 293 cells, Zcyto21 1 ng/ml + IL10Rb neutralizing Antibody (fold induction) worked out at 1.3. For the same substance, in assay [1], the ISRE-luciferase fold induction, wild-type 293 cells, Zcyto21 10 ng/ml (fold induction) came out at 3.2; the ISRE-luciferase fold induction, wild-type 293 cells, Zcyto21 10 ng/ml + IL10Rb neutralizing Antibody (fold induction) was found to be 1.4; the ISRE-luciferase fold induction, wild-type 293 cells, Zcyto21 100 ng/ml (fold induction) is 4.1; the ISRE-luciferase fold induction, wild-type 293 cells, Zcyto21 100 ng/ml + IL10Rb neutralizing Antibody (fold induction) amounted to 1.8. In addition, in assay [1], the ISRE-luciferase fold induction, zcytoR19-overexpressing 293 cells, Zcyto21 0.001 ng/ml (fold induction) amounted to 1.1; the ISRE-luciferase fold induction, zcytoR19-overexpressing 293 cells, Zcyto21 0.001 ng/ml + IL10Rb neutralizing Antibody (fold induction) worked out at 1; the ISRE-luciferase fold induction, zcytoR19-overexpressing 293 cells, Zcyto21 0.01 ng/ml (fold induction) is 1.5; the ISRE-luciferase fold induction, zcytoR19-overexpressing 293 cells, Zcyto21 0.01 ng/ml + IL10Rb neutralizing Antibody (fold induction) was determined as 1.1. In assay [1], the ISRE-luciferase fold induction, zcytoR19-overexpressing 293 cells, Zcyto21 0.1 ng/ml (fold induction) stood at 3.5; the ISRE-luciferase fold induction, zcytoR19-overexpressing 293 cells, Zcyto21 0.1 ng/ml + IL10Rb neutralizing Antibody (fold induction) worked out at 1; the ISRE-luciferase fold induction, zcytoR19-overexpressing 293 cells, Zcyto21 1 ng/ml (fold induction) is 35; the ISRE-luciferase fold induction, zcytoR19-overexpressing 293 cells, Zcyto21 1 ng/ml + IL10Rb neutralizing Antibody (fold induction) came out at 5.8. In assay [1], the ISRE-luciferase fold induction, zcytoR19-overexpressing 293 cells, Zcyto21 10 ng/ml (fold induction) was determined as 48; the ISRE-luciferase fold induction, zcytoR19-overexpressing 293 cells, Zcyto21 10 ng/ml + IL10Rb neutralizing Antibody (fold induction) was found to be 28; the ISRE-luciferase fold induction, zcytoR19-overexpressing 293 cells, Zcyto21 100 ng/ml (fold induction) came out at 45; the ISRE-luciferase fold induction, zcytoR19-overexpressing 293 cells, Zcyto21 100 ng/ml + IL10Rb neutralizing Antibody (fold induction) stood at 31. In assay [2], the ISRE-luciferase fold induction, BHK cells transfected with zcytoR19 alone, zcyto21 0.001 ng/ml (fold induction) is 1.3; the ISRE-luciferase fold induction, BHK cells transfected with zcytoR19 alone, zcyto21 0.01 ng/ml (fold induction) is 1.4; the ISRE-luciferase fold induction, BHK cells transfected with zcytoR19 alone, zcyto21 0.1 ng/ml (fold induction) was 1.4; the ISRE-luciferase fold induction, BHK cells transfected with zcytoR19 alone, zcyto21 1 ng/ml (fold induction) amounted to 2. In assay [2], this substance returned an ISRE-luciferase fold induction, BHK cells transfected with zcytoR19 alone, zcyto21 10 ng/ml (fold induction) of 2.4; an ISRE-luciferase fold induction, BHK cells transfected with zcytoR19 alone, zcyto21 100 ng/ml (fold induction) of 2.6; an ISRE-luciferase fold induction, BHK cells transfected with zcytoR19 alone, zcyto21 1000 ng/ml (fold induction) of 3.3. Further, in assay [3], the ISRE-luciferase fold induction, BHK cells transfected with zcytoR19 and IL10Rb (CRF2-4), zcyto21 0.001 ng/ml (fold induction) came out at 1.3; the ISRE-luciferase fold induction, BHK cells transfected with zcytoR19 and IL10Rb (CRF2-4), zcyto21 0.01 ng/ml (fold induction) was 1.6; the ISRE-luciferase fold induction, BHK cells transfected with zcytoR19 and IL10Rb (CRF2-4), zcyto21 0.1 ng/ml (fold induction) worked out at 2.2; the ISRE-luciferase fold induction, BHK cells transfected with zcytoR19 and IL10Rb (CRF2-4), zcyto21 1 ng/ml (fold induction) was determined as 2.5. For the same substance, in assay [3], the ISRE-luciferase fold induction, BHK cells transfected with zcytoR19 and IL10Rb (CRF2-4), zcyto21 10 ng/ml (fold induction) is 2.6; the ISRE-luciferase fold induction, BHK cells transfected with zcytoR19 and IL10Rb (CRF2-4), zcyto21 100 ng/ml (fold induction) was 2.5; the ISRE-luciferase fold induction, BHK cells transfected with zcytoR19 and IL10Rb (CRF2-4), zcyto21 1000 ng/ml (fold induction) is 2.2.
Substance “zcyto10 (from UniProt Q9NYY1 25-176) (ligand)” returned an ISRE-luciferase fold induction, 293 cells transfected with ISRE-Luc./Zcytor19, Zcyto10 125 ng/ml (fold induction) in assay [2] of 1.
Take zcyto20 (ligand): in assay [1], the ISRE-luciferase fold induction, wild-type 293 cells, Zcyto20 0.01 ng/ml (fold induction) turned out to be 1; the ISRE-luciferase fold induction, wild-type 293 cells, Zcyto20 0.01 ng/ml + IL10Rb neutralizing Antibody (fold induction) worked out at 0.8; the ISRE-luciferase fold induction, wild-type 293 cells, Zcyto20 0.1 ng/ml (fold induction) worked out at 1; the ISRE-luciferase fold induction, wild-type 293 cells, Zcyto20 0.1 ng/ml + IL10Rb neutralizing Antibody (fold induction) was determined as 1. Also, in assay [1], the ISRE-luciferase fold induction, wild-type 293 cells, Zcyto20 1 ng/ml (fold induction) was 1; the ISRE-luciferase fold induction, wild-type 293 cells, Zcyto20 1 ng/ml + IL10Rb neutralizing Antibody (fold induction) came to 0.9; the ISRE-luciferase fold induction, wild-type 293 cells, Zcyto20 10 ng/ml (fold induction) is 4; the ISRE-luciferase fold induction, wild-type 293 cells, Zcyto20 10 ng/ml + IL10Rb neutralizing Antibody (fold induction) is 0.9. Also, in assay [1], the ISRE-luciferase fold induction, wild-type 293 cells, Zcyto20 100 ng/ml (fold induction) is 8.4; the ISRE-luciferase fold induction, wild-type 293 cells, Zcyto20 100 ng/ml + IL10Rb neutralizing Antibody (fold induction) was found to be 0.8; the ISRE-luciferase fold induction, zcytoR19-overexpressing 293 cells, Zcyto20 0.01 ng/ml (fold induction) is 1.1; the ISRE-luciferase fold induction, zcytoR19-overexpressing 293 cells, Zcyto20 0.01 ng/ml + IL10Rb neutralizing Antibody (fold induction) is 1.2. Besides, in assay [1], the ISRE-luciferase fold induction, zcytoR19-overexpressing 293 cells, Zcyto20 0.1 ng/ml (fold induction) is 6; the ISRE-luciferase fold induction, zcytoR19-overexpressing 293 cells, Zcyto20 0.1 ng/ml + IL10Rb neutralizing Antibody (fold induction) was 1.1; the ISRE-luciferase fold induction, zcytoR19-overexpressing 293 cells, Zcyto20 1 ng/ml (fold induction) was 68; the ISRE-luciferase fold induction, zcytoR19-overexpressing 293 cells, Zcyto20 1 ng/ml + IL10Rb neutralizing Antibody (fold induction) is 1.3. For the same substance, in assay [1], the ISRE-luciferase fold induction, zcytoR19-overexpressing 293 cells, Zcyto20 10 ng/ml (fold induction) was 97; the ISRE-luciferase fold induction, zcytoR19-overexpressing 293 cells, Zcyto20 10 ng/ml + IL10Rb neutralizing Antibody (fold induction) amounted to 23; the ISRE-luciferase fold induction, zcytoR19-overexpressing 293 cells, Zcyto20 100 ng/ml (fold induction) was determined as 91; the ISRE-luciferase fold induction, zcytoR19-overexpressing 293 cells, Zcyto20 100 ng/ml + IL10Rb neutralizing Antibody (fold induction) is 60. Moreover, in assay [2], the ISRE-luciferase fold induction, 293 cells transfected with ISRE-Luc./Zcytor19, Zcyto20 125 ng/ml (fold induction) came to 125; the ISRE-luciferase fold induction, BHK cells transfected with zcytoR19 alone, zcyto20 0.001 ng/ml (fold induction) came to 1.4; the ISRE-luciferase fold induction, BHK cells transfected with zcytoR19 alone, zcyto20 0.01 ng/ml (fold induction) came out at 1.2; the ISRE-luciferase fold induction, BHK cells transfected with zcytoR19 alone, zcyto20 0.1 ng/ml (fold induction) stood at 1.25. In assay [2], this substance came in with an ISRE-luciferase fold induction, BHK cells transfected with zcytoR19 alone, zcyto20 1 ng/ml (fold induction) of 1.3; an ISRE-luciferase fold induction, BHK cells transfected with zcytoR19 alone, zcyto20 10 ng/ml (fold induction) of 2.1; an ISRE-luciferase fold induction, BHK cells transfected with zcytoR19 alone, zcyto20 100 ng/ml (fold induction) of 2.2; an ISRE-luciferase fold induction, BHK cells transfected with zcytoR19 alone, zcyto20 1000 ng/ml (fold induction) of 2.25. In addition, in assay [3], the ISRE-luciferase fold induction, BHK cells transfected with zcytoR19 and IL10Rb (CRF2-4), zcyto20 0.001 ng/ml (fold induction) worked out at 1.5; the ISRE-luciferase fold induction, BHK cells transfected with zcytoR19 and IL10Rb (CRF2-4), zcyto20 0.01 ng/ml (fold induction) is 1.6; the ISRE-luciferase fold induction, BHK cells transfected with zcytoR19 and IL10Rb (CRF2-4), zcyto20 0.1 ng/ml (fold induction) amounted to 2.1; the ISRE-luciferase fold induction, BHK cells transfected with zcytoR19 and IL10Rb (CRF2-4), zcyto20 1 ng/ml (fold induction) was 2.5. Besides, in assay [3], the ISRE-luciferase fold induction, BHK cells transfected with zcytoR19 and IL10Rb (CRF2-4), zcyto20 10 ng/ml (fold induction) was found to be 2.4; the ISRE-luciferase fold induction, BHK cells transfected with zcytoR19 and IL10Rb (CRF2-4), zcyto20 100 ng/ml (fold induction) was 2.6; the ISRE-luciferase fold induction, BHK cells transfected with zcytoR19 and IL10Rb (CRF2-4), zcyto20 1000 ng/ml (fold induction) turned out to be 2.1.
As to “huIL10 (from UniProt P22301 19-178) (ligand)”, the ISRE-luciferase fold induction, 293 cells transfected with ISRE-Luc./Zcytor19, HuIL10 100 ng/ml (fold induction) in assay [2] turned out to be 0.5.
